What was measured:
hMC1-r [1] = target: T1, hMC1-r (Homo sapiens, UniProt Q01726); test: Scatchard Analysis on MC1-r transfected COS7 cells with AP-Ag; format: binding; settings: culture supernatant containing up to 30 nM AP-Ag, estimated
T1 construct: expressed in transfected cells; host or cells: COS-7 cells, transient (DEAE-Dextran)
Protocol: (§1) COS-7 cells were transfected with hMC1-r or hMC4-r by the DEAE-Dextran method. A plasmid containing the Adenovirus VA1 and VA2 RNA genes was used to co-transfect the COS cells to enhance transient protein expression by increasing translational initiation. The MC4-r and the VA½ cDNA plasmids were used at a ratio of 10 to 1. Control plates received the VA½ plasmid alone. 48 hours post-transfection, the cells were rinsed and culture supernatant containing 15 nm of AP-Ag was added. AP-Ag is a truncated agouti protein, containing the cysteine-rich domain tagged with the alkaline phosphatase at its N-terminal. Binding of AP-Ag to transfected cells proceeded at room temperature for 90 minutes with gentle rocking. The cells were then washed 7 times before fixing and color development using NBT/BCIP substrate.
To assess the affinity of the agouti protein for the MC1-R receptor, a Scatchard Analysis was performed on MC1-r transfected COS7 cells using culture supernatant containing up to 30 nM AP-Ag. The Kd has been estimated at 20-30 nM range.

hMC1-r [2] = target: T1, hMC1-r; test: Direct binding of AP-Ag to hMC1-r transfected COS-7 cells (AP staining); settings: 15 nm AP-Ag, room temperature, 90 minutes; transfection efficiency typically 12-16%
Protocol: as §1
(§2) N-terminal truncated agouti protein, containing only the cysteine-rich C-terminal domain, retains the antagonizing activity of the full-length agouti. […]
(§3) The transfection efficiency, as monitored by β-galactosidase reporter plasmid, typically was 12-16%. 10-13% of the MC1-r transfected and 3-4% of the MC4-r transfected COS7 cells bound the agouti protein as determined by AP staining. […]

[3] = target: T2, Human melanocortin receptor 4 (hMC4-r) (Homo sapiens, UniProt P32245); test: Intracellular cAMP level in 293/MC4-R stable clones with agouti protein; format: cell-based; settings: 5 nM agouti protein; 293/MC4-R line relative to the parental 293 cell line
T2 construct: expressed in transfected cells
Protocol: Human melanocortin receptor 4 (hMC4-r) cDNA, under the control of the CMV promoter, was transfected into the 293 cell line, and stable clones were selected (293/MC4-R). The stable clones were tested for reduction in intracellular cAMP levels in the presence of 5 nM agouti protein.
When 5 nM agouti protein was added to the 293/MC4-R line, an 18% reduction of intracellular cAMP level, relative to the parental 293 cell line, was observed.

hMC4-r = target: T3, hMC4-r (Homo sapiens, UniProt P32245); test: Direct binding of AP-Ag to hMC4-r transfected COS-7 cells (AP staining); settings: 15 nm AP-Ag, room temperature, 90 minutes; transfection efficiency typically 12-16%
T3 construct: expressed in transfected cells; host or cells: COS-7 cells, transient (DEAE-Dextran), co-transfected with Adenovirus VA1/VA2 RNA plasmid
Protocol: as §1, §2, §3

T1 sequence (Q01726 whole entry): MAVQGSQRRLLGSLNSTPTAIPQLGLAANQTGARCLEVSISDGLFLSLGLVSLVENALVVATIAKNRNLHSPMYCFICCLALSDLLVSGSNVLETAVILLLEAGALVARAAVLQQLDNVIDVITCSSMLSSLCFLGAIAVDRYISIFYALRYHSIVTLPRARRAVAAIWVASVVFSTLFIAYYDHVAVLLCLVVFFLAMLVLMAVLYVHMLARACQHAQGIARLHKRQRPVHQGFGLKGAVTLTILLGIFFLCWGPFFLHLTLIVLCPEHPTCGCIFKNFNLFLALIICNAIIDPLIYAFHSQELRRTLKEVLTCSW
T3 sequence (P32245 whole entry): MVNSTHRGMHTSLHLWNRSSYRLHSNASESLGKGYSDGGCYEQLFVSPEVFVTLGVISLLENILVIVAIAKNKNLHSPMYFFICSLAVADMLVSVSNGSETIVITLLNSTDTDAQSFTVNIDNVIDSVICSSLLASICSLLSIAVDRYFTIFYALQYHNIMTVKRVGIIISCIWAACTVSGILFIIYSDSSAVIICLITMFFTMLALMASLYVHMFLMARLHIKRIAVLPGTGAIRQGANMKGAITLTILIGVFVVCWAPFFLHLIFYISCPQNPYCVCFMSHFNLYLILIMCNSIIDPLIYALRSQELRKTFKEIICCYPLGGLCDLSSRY
T2 sequence (P32245 whole entry): as above

Kd (hMC1-r [1]) [nM] | MC1-r transfected COS7 cells that bound the agouti protein as determined by AP staining (hMC1-r [2]) | reduction of intracellular cAMP level [3] [%] | MC4-r transfected COS7 cells that bound the agouti protein as determined by AP staining (hMC4-r) | Molecule
20 to 30 |  |  |  | AP-Ag: truncated agouti protein, containing the cysteine-rich domain tagged with the alkaline phosphatase at its N-terminal
 | 10-13% | 18 | 3-4% | agouti protein: gene product expressed in mice, involved in coat color and obesity when ectopically expressed; antagonizes melanocortin receptors (protein) HLALEETLGDDRSLRSNSSMNSLDFSSVSIVALNKKSKKISRKEAEKRKRSSKKKASMKKVARPPPPSPCVATRDSCKPPAPACCDPCASCQCRFFGSACTCRVLNPNC

From US20080009438A9, “Screening methods for compounds useful in the regulation of body weight” (Millennium Pharmaceuticals, Inc., priority 1996, published 2008)
